These results are taken from the supplement of paper PMC12636428.

This data set has as its system Saccharomyces cerevisiae. The experiment in a line: transcriptional activation domain activity (GFP:mCherry ratio, weighted mean of sorted bins, harmonized to initial dataset scale) (arbitrary fluorescence ratio units); higher = stronger transcriptional activation. The settings on record: beta-estradiol 1 µM; induction time 4 h. A digest of the protocol:
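The activation activity of each tile is the read-weighted mean of bin median fluorescence, averaged across its barcodes and mapped linearly onto the scale of the initial dataset. Tiles were fused to an estradiol-inducible synthetic transcription factor, barcoded, and integrated at URA3 in yeast diploids carrying a GFP reporter. Induction used 1 uM beta-estradiol in SC for 4 hours at 30 °C, after which cells were sorted into 8 GFP:mCherry bins, and any tile with fewer than 50 reads was dropped.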
“VIEGNTSPAVGIEMCHVMLCSLVKELYQRVAASGMTFVLSVSVECLLSQTLQT”: the “transcriptional activation domain activity” value came to 31800.
The result for “FYWIPIFRAVGKYKYSNLLNKFLLDLHLRYPKKLQNAIRSNWLCNPSGKKNKF” reads 64100; that for “ASIPDPAADDDDAEFGGTGEKKPRKRAPKAASGESKNGKAKAVKTEGGASAAG”, 33300; that for “MVLLSKIVWVICGVTLVSTDFDHAQRRLRGSLLTSLTLYLLIVMCSRWSLVES”, 72400.
For “NGNMIVNFFYKNIICIGCLWWFQIYCGWSSQYVFEYTYLLFWNVFWSLCPVIA” the value was 38800; for “MRILGCVVNAHLKQMIHRNSLLIIPECPRMFWLGCQTRCVVLGEWIGLHANRF”, 69300; for “LLFLPYSCASFFFSLFSLFYFFLFYFFLLFSHIRIFISLSIHFSSSCFSTFLL”, 58300.
The result for “ILQHILLWSLMVMTGCCPGSFFITSYYPNEWLKFLDGYMIQPYVTTFMIRGFL” reads 56900.
On to “AKEEKKEEKKEEAKAAEEVKPEETPAVEETKAEEAKVDEAKTEETPAVAAAAA”, for which the “transcriptional activation domain activity” value amounted to 15700.
The result for “MFMKHGDVSLGYEVCFCILIIITFGLSFFFFFFFHFFLFFHFWLFVSLLFFSD” reads 41900; that for “FQTIHVDASCIGIASPLVHVELQPDLCGRKFPELIGIDLTAATLVRLLSLLCL”, 43000.
For “METPEQPSAGRRRPHRKSRTGCAECRRRRIKCDEVKPACTACVRHDHPCVYPS” the value was 22000; for “SFLSPFCRWVGGSFFVIIWSLFFLSLLFSPPCQPGFISWSFWTAGFLVFFFLF”, 46500.
The result for “DANDGRRTLLVVLGDHGMTAAGNHGGASAGETSAALVLASPLFSTVASAPARR” reads less than 6570; that for “AAAAREKAEAERKEKAEKEERERLEREKREVEAERKKVAAAAARAEKEKAKAA”, 13400; that for “PAAEEVAAAPAHEEPALPKHEELEIEEADEPVHRAAPAERATAAPAAAPVKAP”, 29700.
As for “TLKGIVLRNPVTLRLEEEEDDAANLTQYFVKCSEVDKFLLIQVMIKMRMIKGK”, the “transcriptional activation domain activity” value is 46700.
The result for “FDLDDQYLANVVAEDRDASVLVQMSIIVQEGEHSHKSEQEPHISLLVLRRKRL” reads 40200.
The result for “WAQERGVYANVFGYPGGVAWAMLVARICQLYPNAVSAVVIRKFFQIYSQWKWP” reads 29700.
With “EKKEGAEKEGGEKKEAGGEGEKKVGGEGEKKEGGEGEMKESGVEGGKKEASES”, the “transcriptional activation domain activity” value was 26600.
For “LTLFVHFVKLSGILGEVLRRIYSPKAKINGYRTKTMSQTVWSLQRMLNEWLTN” the value was 53300.
The result for “RNLAAAAAGATAVGLAAKAIHDHRARSRSRSSSASGSDRGHRHNAVLGLGAAG” reads 42100; that for “GPSAEATPPSTEVKKKRQYRKRQITAEGGEAENGEASSAVPKPKRVRKKKDPP”, 38300.
For “LKNLMATIGLTRKVLFTGRQLEFYLAAVKLLATKDVFVKWTAIAKNFFMIVWV” the value was 55500; for “RSRSPEPARKKVDVKQEEPLASSKWAKDDDETLRKRESELKEGLLRKKVTASL”, 34800; for “RSSRRDRDEDENERHSRHRRENRRRSHSSDERHGDARRRDEKSRHHRSSRHER”, 17900.
Take “AFVLFLVYLTLFCWVCFATSSSWVYSEILNEGQYTESFMPVNYVLLAVLSGII”: the “transcriptional activation domain activity” value worked out at 64600.
The result for “FLVAFLLMCLHSPDKSTVAMLILGVFSLLLLLFWAASLSFDGQPSKYGWLLRH” reads 50200; that for “TFGLQTSDKNHYIVDAIHVAVARVGVYVQYPQLQKWSLGKIFYISVWKMRTKF”, 68800.
Consider “YRISLAILQLCKDHLLQSCPTNSEILAFLLHIPHDYLTADVLLDTAFHIKLSK”, for which the “transcriptional activation domain activity” value came out at 54000.
